US20060210568A1, “Methods and compositions for cancer treatment” (priority 2003, published 2006)
“Also recorded” adds a separate entry of the source.

Legend:
Format in all cases: cell-based, human
[1] = tested on: beta casein expression in MCF-7 cells; test: beta casein expression by RT-PCR as marker of breast cancer cell differentiation; conditions: versus control cells with no detectable level, FIG. 3A
Excerpt: We then explored whether growth inhibition of cells overexpressing ADRP was accompanied by stimulated differentiation of the cells. In order to investigate this possibility, we measured the expression of markers of differentiation such as beta casein in the ADRP expressing cells when compared to EV cells. Beta casein is routinely used as a marker of mammary epithelial cell differentiation. We show by RT-PCR that the ADRP overexpressing cells express high level of casein mRNA. In contrast, the control cells had no detectable level of the gene product (see FIG. 3A). In FIG. 3A, GAPDH (Glyceraldehyde-3-phosphate dehydrogenase) loading was used as an internal control for equal sample mRNA expression. […] Measurement of Beta casein expression as marker of breast cancer cell differentiation was by RT-PCR as described above.

[2] = tested on: ADRP overexpressing cells (MCF7-C4); test: proliferation assay, ADRP overexpressing MCF-7 cells; conditions: serum containing medium, with or without hormones and growth factors, FIGS. 1 and 2
Method: The vector used to over-express ADRP in MCF-7 cells is the ADRP-pcDNA3 vector described in Gao and Serrero, 1999. The G418 resistance gene was used as selectable marker. MCF-7 cells were transfected with the ADRP-pcDNA3 plasmid, using the lipofectamine method. Specifically, MCF-7 cells (WT) were plated onto 60-mm dish at the concentration of 2×10^5 cell per plate in 5% fetal bovine serum (FBS) in DMEM/F12 (1:1 mixture of Dulbecco's modified Eagle's medium and Ham' nutrient F12 medium) overnight before transfection. Cells were washed once with serum-free DMEM/F12 (without antibiotic). The lipofectamine method was used for the transfection. Specifically, 2 μg mouse ADRP pcDNA3 construct was used. Transfection was carried on according to manufacturer's recommendations, with 15 μl of lipofectamine and 5 hours of incubation. After transfection, the medium was replaced with 5% FBS DMEM/F12 and the cells were incubated overnight. G418 at the concentration of 800 μg/ml was added the day after for selection. Cells were selected with this medium for 3 weeks. Six clones were isolated and subjected to RT-PCR to determine the existence of the transfection construct. […] Cell numbers were counted by hemacytometer every two days. […]

MCF-7 cells [3] = test: Oil Red O staining of lipid droplets; conditions: ADRP overexpressing versus EV MCF-7 cells, FIG. 4B
Method: This is also supported by the fact that ADRP overexpressing cells accumulated lipid droplets at a higher level (higher number of droplets per cells and higher number of cells having droplets than the empty vector control MCF-7 cells as shown in FIG. 4A and FIG. 4B. A 5-fold increase in lipid droplets accumulation was observed (FIG. 4B). Specifically, cells were plated at the concentration of 2×10^5 per 35-mm dish in 5% FBS DMEM/F12. After 48 h of incubation, cells were washed once with PBS and fixed in 4% formalin for 30 min. Oil Red O working solution was added to cover all the cells, and the cells were incubated at 37° C. for 1 h. The Working Solution was prepared by mixing 6 ml 0.5% Oil Red O in isopropanol with 4 ml H2O, and centrifuging at 4000 g for 10 min to remove sediments. The plates were washed with tap water twice. Cells were counterstained by Hematoxylin QS (Vector Laboratories, California) for 45 sec, and washed with tap water.

bcl-2 = bcl-2 expression in ADRP MCF-7 versus control MCF-7 cells; conditions: ADRP overexpressing versus empty vector control cells, FIG. 5
Excerpt: This is shown by down-regulation of bcl-2 in ADRP MCF-7 cells when compared to control MCF-7 cells. […] In other words, ADRP overexpression sensitizes the cells to apoptotic stimuli.

MCF-7 cells [4] = test: FACS analysis of apoptosis and G1 phase; conditions: ADRP-MCF-7 versus EV-MCF-7 cells
Excerpt: Increased of percentage of cells in apoptosis and in G1 phase is shown by FACS analysis of ADRP-MCF-7 cells and EV-MCF-7 cells.

B1: ADRP: 50-kDa adipose differentiation related protein, over-expressed in MCF-7 cells by transfection with mouse ADRP pcDNA3 construct (protein, UniProt P43883 2-425, looked up)
Perilipin-2: AAAVVDPQQSVVMRVANLPLVSSTYDLVSSAYVSTKDQYPYLRSVCEMAEKGVKTVTSAAMTSALPIIQKLEPQIAVANTYACKGLDRMEERLPILNQPTSEIVASARGAVTGAKDVVTTTMAGAKDSVASTVSGVVDKTKGAVTGSVERTKSVVNGSINTVLGMVQFMNSGVDNAITKSELLVDQYFPLTQEELEMEAKKVEGFDMVQKPSNYERLESLSTKLCSRAYHQALSRVKEAKQKSQETISQLHSTVHLIEFARKNMHSANQKIQGAQDKLYVSWVEWKRSIGYDDTDESHCVEHIESRTLAIARNLTQQLQTTCQTVLVNAQGLPQNIQDQAKHLGVMAGDIYSVFRNAASFKEVSDGVLTSSKGQLQKMKESLDEVMDYFVNNTPLNWLVGPFYPQSTEVNKASLKVQQSEVKAQ
modifications: expressed from pcDNA3
notes: 50-kDa adipose differentiation related protein, over-expressed in MCF-7 cells by transfection with mouse ADRP pcDNA3 construct
[1]
  casein mRNA expression in ADRP overexpressing cells: stimulation of casein expression; also recorded: high level
[2]
  growth of cells over-expressing ADRP: grow very slowly
MCF-7 cells [3]
  increase in lipid droplets accumulation: ~5 fold
bcl-2
  Bcl-2 expression: dramatically decreased; also recorded: much lower level
MCF-7 cells [4]
  percentage of cells in apoptosis and in G1 phase: Increased
